Reference: patent publication US11834553B2, “Alkoxylation methods” (priority 2009, dated 2023)

Experiments:
[1] = Stress stability studies of 4-arm-PEG-Gly-Irino-20K (Example 3); format: physicochemical; details: summary of stress stability studies
Protocol: The product formed in Example 1, 4-arm-PEG-Gly-Irino-20K, compound 5, (approximately 1-2 g) was weighed into PEG PE ‘whirl top’ bags and placed into another ‘whirl top’ bag in order to simulate the API packaging conditions. In one study (results shown in FIG. 1), samples were placed in an environmental chamber at 25° C./60% RH for 4 weeks. In another study, samples were placed in an environmental chamber at 40° C./75% RH for up to several months (results shown in FIG. 2 and FIG. 3). Samples were taken and analyzed on a periodic basis over the course of the studies.

[2] = pH 10, 20° C., within 24 hours
Protocol: (§1) Experiments were performed to determine the fate of the irinotecan-containing PEG species in 4-arm-PEG-Gly-Irino-20K under transesterification (K2CO3 in CH3OH, 20° C.) and aqueous hydrolysis (pH 10, 20° C.) conditions.

[3] = K2CO3 in CH3OH, 20° C., after 45 minutes
Protocol: as §1

Substance: pentaerythritolyl-4-arm-(PEG-1-methylene-2-oxo-vinylamino acetate linked-irinotecan) [4-arm-PEG-Gly-Irino-20K]
- overall stability compared with free base and hydrochloride salt [1]: greater stability than either the free base or hydrochloride salt
- aqueous hydrolysis reaction, completion [2]: > 99%
- transesterification reaction, completion [3]: > 99%
